Earlier results on 2 substances are cited in paper PMC6802610.

What is called Kd is the concentration at which binding is half-saturated.

The target of one data set is GDI (Homo sapiens) (UniProt P31150).
Another data set concerns the target Rab1 (Homo sapiens) (UniProt P62820).

Rab1 (Homo sapiens), sequence (P62820 2-205): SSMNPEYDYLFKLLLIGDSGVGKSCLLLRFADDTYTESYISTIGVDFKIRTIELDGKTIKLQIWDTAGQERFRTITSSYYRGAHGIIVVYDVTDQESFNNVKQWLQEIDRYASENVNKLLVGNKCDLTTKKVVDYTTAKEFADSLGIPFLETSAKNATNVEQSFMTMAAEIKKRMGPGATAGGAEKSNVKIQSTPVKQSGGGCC
Rab1, sequence (P62820 2-205): as above
GDI (Homo sapiens), sequence (P31150 whole entry): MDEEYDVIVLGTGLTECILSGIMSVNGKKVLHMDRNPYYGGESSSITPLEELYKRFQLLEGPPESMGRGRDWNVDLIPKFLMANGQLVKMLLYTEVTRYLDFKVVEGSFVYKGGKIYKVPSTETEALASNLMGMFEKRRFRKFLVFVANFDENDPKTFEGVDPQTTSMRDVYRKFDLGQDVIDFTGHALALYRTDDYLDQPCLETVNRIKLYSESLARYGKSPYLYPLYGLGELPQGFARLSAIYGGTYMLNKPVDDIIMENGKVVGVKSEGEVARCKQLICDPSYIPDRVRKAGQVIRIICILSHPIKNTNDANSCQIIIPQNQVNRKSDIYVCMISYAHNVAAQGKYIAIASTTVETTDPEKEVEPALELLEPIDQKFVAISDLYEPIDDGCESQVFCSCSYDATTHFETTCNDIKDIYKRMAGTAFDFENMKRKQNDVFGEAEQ
SidM/DrrA, sequence (Q5ZSQ3 whole entry): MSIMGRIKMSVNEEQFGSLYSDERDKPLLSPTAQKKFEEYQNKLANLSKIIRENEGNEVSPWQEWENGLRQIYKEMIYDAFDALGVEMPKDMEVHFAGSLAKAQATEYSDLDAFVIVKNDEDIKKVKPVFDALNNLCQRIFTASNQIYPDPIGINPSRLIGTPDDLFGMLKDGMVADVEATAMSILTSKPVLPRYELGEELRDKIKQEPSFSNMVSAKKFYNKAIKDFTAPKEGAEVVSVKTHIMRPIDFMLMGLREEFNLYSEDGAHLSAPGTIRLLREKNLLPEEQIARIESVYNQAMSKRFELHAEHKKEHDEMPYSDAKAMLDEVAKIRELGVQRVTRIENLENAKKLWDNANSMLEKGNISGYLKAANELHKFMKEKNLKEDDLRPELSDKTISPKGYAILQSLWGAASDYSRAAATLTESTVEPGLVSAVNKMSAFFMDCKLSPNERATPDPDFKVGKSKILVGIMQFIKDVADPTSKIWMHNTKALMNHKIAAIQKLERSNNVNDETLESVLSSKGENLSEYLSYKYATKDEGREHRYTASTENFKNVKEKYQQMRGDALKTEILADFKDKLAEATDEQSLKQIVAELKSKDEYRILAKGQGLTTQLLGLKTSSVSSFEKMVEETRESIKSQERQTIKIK

Rab1 (from UniProt P62820): the Kd with GDI (Homo sapiens) is 20 nM.

For the substance SidM/DrrA (from UniProt Q5ZSQ3), the dissociation constant (Kd) in the data set with Rab1 (Homo sapiens) is 84 nM.
